We go through 30 sequences from the nanobody polyreactivity screen of Harvey et al. (2022).

The nature of the data set: yeast display, Sf9 membrane polyspecificity reagent, FACS + sequencing; frameworks hold sequencing errors. The essentials: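 Nanobodies from a synthetic yeast display library (Saccharomyces cerevisiae BJ5465), induced 36–48 hours with galactose, were stained 1 hour at 4 °C with 10% biotinylated, detergent-solubilized Sf9 membrane reagent, enriched on streptavidin microbeads, then FACS-sorted. Anti-HA (expression) and streptavidin (reagent binding) fluorescence set low and high (top ~1%) gates. Polyreactivity labels come from the gate of origin. Genes were colony-PCR amplified, MiSeq 2 × 250 sequenced and filtered by CDR length.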
Regarding “QVQLVESGGVLVQAGGSLRLSCAASGRTFYGYSMGWYRQAAGKEREFVSDITYSGGRTYYADSVKGRFTISRDNAKNTVYLQMYSLKPEDTAVYYCNAYYYYVNQGRYEYGYWGQGTQVTVSS”, the “polyreactivity (PSR sort gate)” value was “high polyreactivity”. For “QVQLVESGGVLVQAGGSLRLSCAASGRTFYYYAMGWYRQAPGKEREFVAVISGSGANTFYADSVKGRFTISRDNAKNTVYLQMNSLKPEDTAVYYCAARSWEGYGYWGQGTQVTVSS” the value was “high polyreactivity”. Regarding “QVQLVESGGVLVQAGGSLRLSCAASGRTLFHYAMGWDRQAPGKERELVAAIRNSDGSTYYADSVKGRFTISRDNAKNTVYLQMNSLKPEDTAVYYCAAKYKYRTNNYWGQGTQVTVSS”, the “polyreactivity (PSR sort gate)” value was “high polyreactivity”. As for “QVQLVESGGVLVQAGGSLRLSCAASGSIFGYNVMGRYRQAPGKERELVAAITYSGGSTYYADSVKGRFTISRDNAKNTVYLQMNSLKPEDTAVYYCAKVTGRRFPAYGYDHWGQGTQLTVSS”, the “polyreactivity (PSR sort gate)” value is reported as “high polyreactivity”.

Consider “QVQLVESGGVLVQAGGSLRLSCAASGSIFYYNAMGWYRQAPGKERELVATITGGNGTYYADSVKGRFTISRDNAKNTVYLQMNSLKPEVTAVYYCARDTDPQSSRSSDYDYWGQGTQVTVSS”, for which the “polyreactivity (PSR sort gate)” value is given as “low polyreactivity”. For “QVQLVESGGVLVQAGGSLRLSCAASGSILHDYAMGWYRQAPGKERELVASINWSGGRTYYADSVKGRFTISRDNAKNTVYLQRNRLTPEDTAVYYCSADPSWLHVSHAPTFGLDYWGQGSQVTVSS” the value was “high polyreactivity”. In the case of “QVQLVESGGVLVQAGGSLRLSCAASGSIYRYYAMGWYRQAPGKERELVAAISWRGGSTYYADSVKGRFTISRDNAKNPVYLQMNSLKPEDTAVYYCAAELWVGTYGEYDYWGQGTQVTVSS”, the “polyreactivity (PSR sort gate)” value is “low polyreactivity”.

Consider “QVQLVESGGVLVQAGGSLRLSCAASGSTFLWYAMGWYRQAPGKEREMVAAISRSGGNTYYADSVKGRFTISRDNAKTSVYLEMNSLNPEDTAVYDCAARKLYGSPEHGYGGQGTQVTVSS”, for which the “polyreactivity (PSR sort gate)” value was “high polyreactivity”. Turning to “QVQLVESGGVLVQAGGSLRLSCAASGSTFNSYVMGWYRQAPGKEREFVAAISWSGVRTYYADSVKGRFTISRDNAKNTVYLQMNSLKPEDTAVYYCAVRSGRRNYVRPAFGYWGQGTQVTVSS”, the “polyreactivity (PSR sort gate)” value is on record as “high polyreactivity”. For “QVQLVESGGVLVQAGGSLRLSCAASGSTFVYNAMGWYRQAPGKESEFVAAISGSGGSTYYADSVKGRFTISRDIAKNTVYLQMNSLKPDDTAVYYCATAGRYGRYRTYPYRSKYDYWGQGTQVTVSS” the value was “high polyreactivity”; for “QVQLVESGGVLVQAGGSLRLSCAATGYIFHLYGMGWYRQAPGKERELVARITYRRGSTYYADSVKGRFTISRDNAKNTVYLQMNSLKPEDTAVYYCAKRRGYGYNYWGQGTQVTVSS”, “high polyreactivity”; for “QVQLVESGGVLVQAGGSLRLSCADSGRTFYTNAMGWYRQAPGKERELVAAITGSDGNTYYADSVKGRFTISRENAKNTVYLQMISLKAEDTAVYYGFDYWVQGTQVTVSS”, “low polyreactivity”. As to “QVQLVESGGVLVQAGGSLRLSCADSGSIFILYAMGWYRHAPGKESEFVAAITYRGGSTKYADSVKGRFTISRDNAKNTVYLQMNRLKPEDTAVYYCAAGGYWRSPCGSVSRYGYWGQGTQVTVSS”, the “polyreactivity (PSR sort gate)” value is recorded as “high polyreactivity”. On to “QVQLVESGGVLVQAGGSLRLSSAASGRTFFRYTMGWYRQAPGKERELVAAISRSDGTTYYADSVKGRFTISRDSAKNTVYLEMNSLKPEDTAVYYCAKSLPSGYYYWGQGTQVTVSS”, for which the “polyreactivity (PSR sort gate)” value is “low polyreactivity”. The value for “QVQLVESGGVLVQAGGSLRLTCAASGRTFGHYAMGWYRQAPGKERELVAANTSSAGRTRYADSVKGRFTISRDYAKNTVYLQMNSLKPEDTAVYYCAVAEGYSPAYLRDYWGQGTQVTVSS” was “high polyreactivity”; that for “QVQLVESGGVLVQAGGSLRLTCAASGSILYLNAMGWYRQAPGKERELVAAITWSGGSTSYADSVKGRFTISRDNAKYTVSLQMNSLKPEDTAVYYCASGRRGYGGVYYAGGYWGQGTQVTVSS” was “low polyreactivity”; that for “QVQLVESGGVLVQAGGTLRFSCAPSGLTFVYYTMRWYRQAPGQEREFVAGIDWSGGSTYYADSVKGRFTISRDNAKNTVYLHMNSLKPEDTAVYYCAAAVYYQYCVYRHDYWGKGTQVTVSS” was “low polyreactivity”. With “QVQLVESGGVLVQDGGSLRLSCAASGRIFGHYAMGWYRQAPGKERELVAAISWSGGSTYYADSVKARFTISRDNAKNTVYLQMKSLKPEDTAVYDCNTGRVRYQGVRYDYWGQGTQVTVSS”, the “polyreactivity (PSR sort gate)” value is “high polyreactivity”. For “QVQLVESGGVLVQEGGSLRLICAASGSIFGYYVMGWYRQAPGKERELVAAISRSGGSTYYADSVKGLFTISRDNAKTTVYLQMNSLKQEDTAVYYCAASFAVRYPRLDYWGQGTQVTVSS” the value was “high polyreactivity”. As to “QVQLVESGGVLVQEGGSLRLSCDASGSIFECYAMGWYRQAPGKARELVAYITYNGGSTYYADSVKGRFTISRHNAKKTVYLQMNSLKPEDSAVYYCAAVYFVQVPDYYYASEYGYWGQGTQVTVSS”, the “polyreactivity (PSR sort gate)” value is “low polyreactivity”.

“QVQLVESGLGLVQAAGSLRLSCAASGSILYSYAMGWYRQAPGKERELFAAITGAGASTNYADSVKGRFTISRDNGKNTVYLQMNSLKPEDTAVYYCNAEYNPYHYYKAWVYTYDYGYWGQGTQVTVSS”: the “polyreactivity (PSR sort gate)” value was “low polyreactivity”. On to “QVQLVESGLGLVQAGGSLRISCAASGLTIYYYAMGWYRQAPGKERELVAAITWRGGSTYYADSVKGRFTISRDNAKNTVYLQMNSLKPEDTAVYYCNKAYKYIRQQPYRTKRYDYWGQGTQGTVSS”, for which the “polyreactivity (PSR sort gate)” value is on record as “low polyreactivity”. With “QVQLVESGLGLVQAGVSLRLSCAATGLTFVYYAMGWYRPAHGKERELVAAIDWSGGTTYYADSVKGRFTISRDHAKNTVYLQMNSLKPEDTAVYYCAADVVEEDDLEFYYWGQGTQVTVSS”, the “polyreactivity (PSR sort gate)” value is “high polyreactivity”. The value for “QVQLVESGRGIVQAGGSLRLSCAASGRIFYLNAMGWYRQAPGKERELVAAITRSAASTHYADSVKGRFTISRDNAKNTVYVQMNSLKPEDTAVYYCAARFWYDYRHYDYWGQGTQVTVSS” was “low polyreactivity”. In the case of “QVQLVESGRGIVQAGGSLRLSCAASGRTFYVYTMGWYRQAPGKERELVAAITSGGSTNYADSVKGRFTISRDNAKNTLYLQMNSLKPEDTAVYYCAARVSTVFKRYYYWGQGTQVTVSS”, the “polyreactivity (PSR sort gate)” value is recorded as “high polyreactivity”. For “QVQLVESGRGLDQAGGSLRISSAASGNTYKGHAMGWYRHAPGKERELVAAISWSTDSTYYADSVKGRFTISRDNAKNTVYLQMNSLKPEDTAIYYCAAYYSHLTIAWYYYWGQGTQVNVSS” the value was “low polyreactivity”; for “QVQLVESGRGLFQAGGSLRLSCAASGIIFKSYAMGWYRQAPGKEREFVAAISWSGGRTTYADSLKGRFTISRDNAKNTVYLPMNSLKPEDTAVYYCAAAARGKFYYWGQGTQVTVSS”, “high polyreactivity”; for “QVQLVESGRGLFQEGGSLRLSCAPSGFIFGKYAMGWYRQAPGTEREFVAAITRNGGSTYYADSVKGRVTISRDNAKNTVYLQMNSLKPDDTAVYYCNADRGYRRRTGMDDWGQVTQVTVSS”, “low polyreactivity”. For “QVQLVESGRGLLQAGGSLRISCAASGFTFKGNAMGWYRQAPGKESELVAAITTSGGSTYYADSVKWRFTISRDNAKNTVYLQMNSLKPEDTAVYYCNAYFIYEGGWYYNAQYDYWGQGTQVTVSS” the value was “low polyreactivity”; for “QVQLVESGRGLLQAGGSLRLSCASSGCIFTSYAMGWYRPAPGKVRELVAGITRGGRTYYADSVKGRFTISRDKAKNTVYLQSNSLKPEDTAVYYCAALSSRHFVFTVDYWGQATQVTVSS”, “high polyreactivity”.
